Assay results taken from publication PMC9371925 (Nucleic Acids Research, 2022).
Substitutions are numbered along the chain they refer to. Several values for one entry are separate records, joined by “and”; a condition that tells them apart may be missing. Equal values may be shown once. Read-outs that look alike come from different tables or passages of the source.

Tests used:
[1] = molecular target: Streptomyces coelicolor zinc uptake regulator (ScZur) (Streptomyces coelicolor M145); assay: cryo-EM structure
ScZur [2] = molecular target: T1, ScZur (Streptomyces coelicolor M145, UniProt Q9L2H5 1-139); assay: EMSA
T1 sequence: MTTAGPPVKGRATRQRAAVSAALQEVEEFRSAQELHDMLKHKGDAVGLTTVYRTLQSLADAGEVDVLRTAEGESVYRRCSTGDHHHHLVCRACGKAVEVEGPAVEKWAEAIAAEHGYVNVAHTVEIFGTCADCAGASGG

ScZur [3] = molecular target: T1, ScZur; assay: EMSA; remark: listed apart in the source
cryo-EM structure = molecular target: the molecule itself; assay: cryo-EM structure

“Streptomyces coelicolor zinc uptake regulator (ScZur) (natural protein)” was tested. Which stoichiometry N [1] did it give?
The stoichiometry N was 6 and 4.

B1: zitB Zur-box 33 bp (-68 to -36) (dsDNA)
DNA 1: CAAGGCACATGACAACGGTGTTCAGTGCCGCGT
DNA 2: ACGCGGCACTGAACACCGTTGTCATGTGCCTTG
With B1 as the molecule, how does the Kd (ScZur [2]) read?
Its Kd is 34 ± 0.7 nM.

B2: M2 33 bp (dsDNA)
DNA 1: B1 DNA 1 with G11C, G17T, C23G
DNA 2: B1 DNA 2 with G11C, C17A, C23G
Which Kd (ScZur [3]) does the source give for B2 here?
Its Kd is 223 ± 30.5 nM.

B3: Streptomyces coelicolor RNA polymerase α subunit (natural protein, Streptomyces coelicolor M145)
chain: MLIAQRPSLTEEVVDEFRSRFVIEPLEPGFGYTLGNSLRRTLLSSIPGAAVTSIRIDGVLHEFTTVPGVKEDVTDLILNIKQLVVSSEHDEPVVMYLRKQGPGLVTAADIAPPAGVEVHNPDLVLATLNGKGKLEMELTVERGRGYVSAVQNKQVGQEIGRIPVDSIYSPVLKVTYKVEATRVEQRTDFDKLIVDVETKQAMRPRDAMASAGKTLVELFGLARELNIDAEGIDMGPSPTDAALAADLALPIEELELTVRSYNCLKREGIHSVGELVARSEADLLDIRNFGAKSIDEVKAKLAGMGLALKDSPPGFDPTAAADAFGADDDADAGFVETEQY
Does B3 bind (cryo-EM structure)?
Result: binds
